Test results as given in patent US9173950B2, “Vitamin D-ghrelin conjugates” (Extend Biosciences, Inc., priority 2012, dated 2015).
Like-named read-outs stand apart in the source and are kept apart here.

Experiments:
[1] = Pharmacokinetics of rGhrelin and rGhrelin-carrier conjugate after IV injection, plasma ELISA; assay type: in vivo, Sprague Dawley rats; settings: 0.1 mg/kg IV
Protocol: Pharmacokinetics of rGhrelin (SEQ ID NO:6) or the rGhrelin-carrier conjugate was studied in Sprague Dawley rats. Briefly, 0.1 mg/kg of each molecule was injected separately into the rats by intravenous (IV) injection. Samples of plasma were collected at 30 mins, 60 mins, 120 mins, 240 mins, 360 mins, 24 hrs and 48 hrs. Samples were analyzed using a commercial ELISA kit validated for analyzing rGhrelin from rat plasma (Millipore, Cat. #EZRGRT-91K). […] Thus, ghrelin in a conjugated form is a useful therapeutic for the treatment of ghrelin-responsive diseases such as cachexia, anorexia and frailty in the elderly.

GHS-R = target: T1, GHS-R (Homo sapiens, UniProt Q92847); experiment: Cell-based ghrelin receptor agonist assay, calcium flux (FLIPR) in GHS-R-expressing CHO-K1 cells; settings: in the presence of 10% serum that contains DBP
T1 construct: host or cells: CHO-K1
Protocol: The test compounds were added to GHS-R-expressing CHO-K1 cell cultures. […] The activity was measured by a calcium flux-based assay developed by GenScript USA Inc. for the FLIPR™ (Fluorescence Imaging Plate Reader) high-throughput cellular screening instrument.
CHO-K1 cells expressing GHS-R were cultured in Ham's F12 supplemented with 10% fetal bovine serum, 500 mg/mL G418 and were passaged in order to maintain optimal cell health. The cells were seeded in a 384-well black-wall, clear-bottom plate at a density of 20,000 cells per well in 20 μL of growth medium 18 hours prior to the assay and maintained at 37° C./5% CO2. […] The intracellular calcium levels in the cells were measured for 20 seconds using the FLIPR™ instrument prior to addition of the test articles. […] Changes in intracellular calcium levels were measured for an additional 100 sec (21 to 120 seconds).
The average value of the 20 second reading (1 to 20 seconds) was calculated as the baseline reading and the relative fluorescent units (ΔRFU) intensity values were calculated with the maximal fluorescent units (21 to 120 seconds) subtracting the average value of baseline reading. […]
The % activation of compound was calculated using the following equation: % activation=(ΔRFUCompound−ΔRFUBackground)/(ΔRFUAgonist control−ΔRFUBackground)}*100% activation was then plotted as a function of the log of the cumulative doses of compounds. […]

[2] = human, in vivo; cited from earlier work
[3] = Pharmacokinetics of FGF21 and FGF21-carrier conjugate after SC injection, plasma ELISA; assay type: in vivo, Sprague Dawley rats; settings: 0.1 mg/kg SC
Protocol: Pharmacokinetics of FGF21 (SEQ ID NO:3) or the FGF21-carrier conjugate was studied in Sprague Dawley rats. Briefly, 0.1 mg/kg of each molecule was injected separately into the rats by SC injection. Samples of plasma were collected at 30 mins, 60 mins, 120 mins, 240 mins, 360 mins, 24 hrs and 48 hrs. Samples were analyzed using a commercial ELISA kit validated for FGF21 (Millipore, Cat. #EZHFGF21-19K).

T1 sequence (Q92847 whole entry, species assumed): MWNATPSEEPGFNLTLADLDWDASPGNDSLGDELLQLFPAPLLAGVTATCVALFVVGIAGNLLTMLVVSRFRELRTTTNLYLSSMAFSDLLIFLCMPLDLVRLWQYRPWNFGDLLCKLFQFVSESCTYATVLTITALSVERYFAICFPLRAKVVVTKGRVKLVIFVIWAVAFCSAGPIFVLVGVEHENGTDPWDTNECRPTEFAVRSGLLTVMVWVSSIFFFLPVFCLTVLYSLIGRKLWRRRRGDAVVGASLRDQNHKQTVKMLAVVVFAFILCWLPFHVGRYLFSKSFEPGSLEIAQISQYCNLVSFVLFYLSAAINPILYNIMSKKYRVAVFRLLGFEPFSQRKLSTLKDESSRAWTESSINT

**Q.** With `CCCCCCCC(=O)OC[C@H](NC(=O)[C@H](CO)NC(=O)CN)C(=O)N[C@@H](Cc1ccccc1)C(=O)N[C@@H](CC(C)C)C(=O)N[C@@H](CO)C(=O)N1CCC[C@H]1C(=O)N[C@@H](CCC(=O)O)C(=O)N[C@@H](Cc1c[nH]cn1)C(=O)N[C@@H](CCC(N)=O)C(=O)N[C@@H](CCCCN)C(=O)N[C@@H](C)C(=O)N[C@@H](CCC(N)=O)C(=O)N[C@@H](CCC(N)=O)C(=O)N[C@@H](CCCNC(=N)N)C(=O)N[C@@H](CCCCN)C(=O)N[C@@H](CCC(=O)O)C(=O)N[C@@H](CO)C(=O)N[C@@H](CCCCN)C(=O)N[C@@H](CCCCN)C(=O)N1CCC[C@H]1C(=O)N1CCC[C@H]1C(=O)N[C@@H](C)C(=O)N[C@@H](CCCCN)C(=O)N[C@@H](CC(C)C)C(=O)N[C@@H](CCC(N)=O)C(=O)N1CCC[C@H]1C(=O)N[C@@H](CCCNC(=N)N)C(=O)N[C@@H](CS)C(=O)O` [rGhrelin, reference compound] as the molecule, how does the half-life ([1]; rat, in vivo, Sprague Dawley rats, plasma, read-out: half-life (WinNonLin) (converted)) read?
**A.** Its half-life is 22.2 min.

**Q.** With “rGhrelin-carrier conjugate: Rat ghrelin peptide (SEQ ID NO:6) conjugated via free cysteine to the Vitamin D3-PEG-maleimide carrier of Example 1 (GSSFLSPEHQKAQQRKESKKPPAKLQPRC; Vitamin D3-PEG-maleimide carrier)” as the molecule, how does the “half-life (WinNonLin)” value ([1]; Sprague Dawley rats, plasma) read?
**A.** The value was 8 h.

**Q.** What about the “improvement in half-life vs rGhrelin” value ([1]; rats) of the same molecule?
**A.** The value was 22 fold.

**Q.** What about the “interference in receptor binding and activation” value (GHS-R) of the same molecule?
**A.** Its value is “No interference”.

**Q.** For `CCCCCCCC(=O)OC[C@H](NC(=O)[C@H](CO)NC(=O)CN)C(=O)N[C@@H](Cc1ccccc1)C(=O)N[C@@H](CC(C)C)C(=O)N[C@@H](CO)C(=O)N1CCC[C@H]1C(=O)N[C@@H](CCC(=O)O)C(=O)N[C@@H](Cc1cnc[nH]1)C(=O)N[C@@H](CCC(N)=O)C(=O)N[C@@H](CCCNC(=N)N)C(=O)N[C@H](C(=O)N[C@@H](CCC(N)=O)C(=O)N[C@@H](CCC(N)=O)C(=O)N[C@@H](CCCNC(=N)N)C(=O)N[C@@H](CCCCN)C(=O)N[C@@H](CCC(=O)O)C(=O)N[C@@H](CO)C(=O)N[C@@H](CCCCN)C(=O)N[C@@H](CCCCN)C(=O)N1CCC[C@H]1C(=O)N1CCC[C@H]1C(=O)N[C@@H](C)C(=O)N[C@@H](CCCCN)C(=O)N[C@@H](CC(C)C)C(=O)N[C@@H](CCC(N)=O)C(=O)N1CCC[C@H]1C(=O)N[C@@H](CCCNC(=N)N)C(=O)O)C(C)C` [ghrelin], which half-life [2] is on record?
**A.** The half-life was 11 min.

B1: FGF21-carrier conjugate: Modified FGF21 (SEQ ID NO:3) conjugated through its free cysteine to the Vitamin D3-PEG-maleimide carrier of Example 1 (conjugate)
chain: MGSHHHHHHSSGENLYFQGHPCPDSSPLLQFGGQVRQRYLYTDDAQQTEAHLEIREDGTVGGAADQSPESLLQLKALKPGVIQILGVKTSRFLCQRPDGALYGSLHFDPEACSFRELLLEDGYNVYQSEAHGLPLHLPGNKSPHRDPAPRGPARFLPLPGLPPALPEPPGILAPQPPDVGSSDPLSMVEPSQGRSPSYASP
modifications: Vitamin D3-PEG-maleimide carrier
**Q.** Which results are given for B1?
**A.** area under the curve (AUC) ([3]; Sprague Dawley rats, plasma): 1.04798 µg·h/mL; average Cmax ([3]; Sprague Dawley rats, plasma): 143.526 ng/mL; increase in bioavailability (ratio of average Cmax, conjugate vs FGF21) ([3]; rats): 380 fold; increase in drug exposure (ratio of mean AUC, conjugate vs FGF21) ([3]; rats): 675 fold
